Among the data in US20100015135A1 are Kd, koff and kon values, retold here.

In assay [1] the target is T1, human EphB4-His (human) (UniProt P54760).
T1 sequence (looked up): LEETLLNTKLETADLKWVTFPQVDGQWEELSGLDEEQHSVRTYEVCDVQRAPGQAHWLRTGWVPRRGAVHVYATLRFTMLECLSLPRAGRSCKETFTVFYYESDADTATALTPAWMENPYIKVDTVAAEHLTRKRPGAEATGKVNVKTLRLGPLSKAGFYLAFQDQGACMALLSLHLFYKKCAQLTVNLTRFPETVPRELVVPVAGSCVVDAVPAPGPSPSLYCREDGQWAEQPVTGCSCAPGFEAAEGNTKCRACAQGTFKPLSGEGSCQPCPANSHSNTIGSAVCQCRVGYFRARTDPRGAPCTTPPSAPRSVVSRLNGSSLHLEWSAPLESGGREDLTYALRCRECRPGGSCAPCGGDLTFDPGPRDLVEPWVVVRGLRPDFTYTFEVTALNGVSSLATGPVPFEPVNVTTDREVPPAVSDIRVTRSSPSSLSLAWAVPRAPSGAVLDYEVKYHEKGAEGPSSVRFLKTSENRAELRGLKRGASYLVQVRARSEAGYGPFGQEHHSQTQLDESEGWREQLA
In words: SPR, BIAcore-3000, antibody coupled to CM5 chip, EphB4-His injected, 25 C.

Assay [2] has as its target murine EphB4-His (murine) (UniProt P54761). Described as above.

Residue numbers refer to the chain shown, from its start. Some results are limits rather than exact numbers.

B1: anti-EphB4 antibody clone YW30.35 (antibody, V domains shown)
VH: EVQLVESGGGLVQPGGSLRLSCAASGFTISGYYIHWVRQAPGKGLEWVGGIYPYSGSTDYADSVKGRFTISADTSKNTAYLQMNSLRAEDTAVYYCARGSGLRLGGLDYAMDYWGQGTLVTVSS
VL: DIQMTQSPSSLSASVGDRVTITCRASQDVSTAVAWYQQKPGKAPKLLIYSASFLYSGVPSRFSGSGSGTDFTLTISSLQPEDFATYYCQQSYTTPPTFGQGTKVEIK
As for B1, in assay [1], the Kd stood at 32 nM, the koff stood at 9.6e-05 s⁻¹ and the kon is 3000 M⁻¹ s⁻¹. In assay [2], the Kd was determined as 2.4 nM, the koff amounted to 7.5e-05 s⁻¹ and the kon amounted to 31000 M⁻¹ s⁻¹.

B2: anti-EphB4 antibody clone YW30.35.1D2 (antibody, V domains shown)
VH: B1 VH with G99S
VL: DIQMTQSPSSLSASVGDRVTITCRASQDSEIFLAWYQQKPGKAPKLLIYSASNLESGVPSRFSGSGSGTDFTLTISSLQPEDFATYYCQQSNAVPLTFGQGTKVEIK
In the case of B2, in assay [1], the Kd is less than 0.14 nM, the koff is less than 5e-06 s⁻¹ and the kon worked out at 36000 M⁻¹ s⁻¹. In assay [2], this molecule displayed a Kd of less than 0.04 nM, a koff of less than 5e-06 s⁻¹ and an on-rate (kon) of 128000 M⁻¹ s⁻¹.

B3: anti-EphB4 antibody clone YW30.35.2D12 (antibody, V domains shown)
VH: B1 VH with P53L, T58R, D59G
VL: B1 VL with Q90K, Y92E, T94I, T97S
Take B3: in assay [1], the Kd was less than 0.19 nM, the koff was less than 5e-06 s⁻¹ and the kon was 27000 M⁻¹ s⁻¹.

B4: anti-EphB4 antibody clone 30.35.2D13 (antibody, V domains shown)
VH: B1 VH with P53L
VL: B1 VL with S91T, Y92A, T93Q, P96E
In the case of B4, in assay [1], the Kd is less than 0.11 nM, the koff is less than 5e-06 s⁻¹ and the kon worked out at 45000 M⁻¹ s⁻¹.

B5: anti-EphB4 antibody clone YW30.35.2D8 (antibody, V domains shown)
VH: B1 VH with T28S, G31N, I34L, P53L, S55G, G56S, T58S, D59E
VL: B1 VL with Q90E, Y92T
In assay [1], B5 gave a Kd of less than 0.12 nM, a koff of less than 5e-06 s⁻¹ and a kon of 40000 M⁻¹ s⁻¹. Further, in assay [2], the Kd is less than 0.05 nM, the koff was less than 5e-06 s⁻¹ and the kon turned out to be 92000 M⁻¹ s⁻¹.
